This assay concerns the target human MN protein, entire extra-cellular domain with a C-terminal histag, expressed in HKB-11 cells (human), Q16790. In words: SPR (BIAcore 3000), IgG captured on anti-human IgG Fc, soluble MN as analyte, 1:1 Langmuir fit. To be noted: remark: other sources report otherwise. Background: SPR reads the build-up and loss of mass on a sensor chip optically.

B1: 3a4 full-length human IgG1 antibody (antibody)
chain 1: QVELVESGGGLVQPGGSLRLSCAASGFTFSDYSINWVRQAPGKGLEYVSNISYSGSSTYYADSVKGRFTISRDNSKNTLYLQMNSLRAEDTAVYYCARFKYSGGSDSWGQGTLVTVSS
chain 2: DIELTQPPSVSVAPGQTARISCSGDNLPDFYVHWYQQKPGQAPVLVISEDNKRPSGIPERFSGSNSGNTATLTISGTQAEDEADYYCSTYGYTYSYSVFGGGTKLTVL
Broadly, the Kd is the free concentration of one partner at which half of the binding sites on the other are occupied at equilibrium, for simple one-to-one binding. Low values mean tighter binding, high ones weaker binding. Molecule B1 yielded a Kd of 1 nM.

These data come from patent US20100129315A1.
